Source: the DeepSol protein solubility set

Test: soluble on expression in E. coli; label from the status in PepcDB or PDB records

Sequence | soluble on expression in E. coli
SQPVAITDGIYWVGAVDWNIRYFHGPAFSTHRGTTYNAYLIVDDKTALVDTVYEPFKEELIAKLKQIKDPVKLDYLVVNHTESDHAGAFPAIMELCPDAHVLCTQRAFDSLKAHYSHIDFNYTIVKTGTSVSLGKRSLTFIEAPMLHWPDSMFTYVPEEALLLPNDAFGQHIATSVRFDDQVDAGLIMDEAAKYYANILMPFSNLITKKLDEIQKINLAIKTIAPSHGIIWRKDPGRIIEAYARWAEGQGKAKAVIAYDTMWLSTEKMAHALMDGLVAGGCEVKLFKLSVSDRNDVIKEILDARAVLVGSPTINNDILPVVSPLLDDLVGLRPKNKVGLAFGAYGWGGGAQKILEERLKAAKIELIAEPGPTVQWVPRGEDLQRCYELGRKIAARIAD | soluble
MSGALDGVRVLDLSRVLAGPYATMILGDLGADVIKVEAPGGSDDTRFWGPPFQNGMSAYYTAVNRNKRSITVNLKSAEGQETIRRLAETADVLIHNFKTGTMEQWELGYESLSRLNPRLIYCSITGFGETGPLAPLAGYDYIIQAMSGWMSINGTADTGPLKVGVAVTDVFTGLYAAIAIEAALLAREKTGRGQKIDLALFDCAVSALVNVAANYLLSGDVPKPLGNEHPNIVPYSTYMASDGPIVIAVGNDRQFQALCSLLSDHSLGTDPRFQTNPGRVAHREELNRRLNEEIKRRTRAEWQRLLAEKGIPCGPVQTLDELFRHPQTAAREMTVTVHHPIVGPLTLVASPLKLSDTAVSYRLPPPLAGEHNGEVEAGWQGKPAAENGPHDKNQ | not soluble
MGSDKIHHHHHHMPDNPTIATLPDSQGHNHRADVQLNQLQCDSTKPNDIRPNAIMPSAIEPNAIKHESVVAEQKQKVIFIGLPRTGTTSVSVALLEQGLKVAHMAFTKAAFMQADAISDAPCFSDFKQLDKLFPDAKFVYIERELDSWVPSMQMLLSRMLPHLDAKSGRFHPIMKRSFRHSFGVGVVENPQDEQHLIDCYQRHKTEVVNYFAGRHDLLCIDVSQQGALGQLLAFMGLAATENQQNFPKLNVGRNVASWDEYKHPNKISANASGPDKRKFFDYKI | not soluble
GHFAPQQMKEAIEIYKTLFEPSDVLDEPYVIVCLNTIVAENDDEAQYLASSMAQVMVSITRGRMQPVQPPTHDLQNILTPREYAMAMERQKISLIGSENTVQQKIQDFMETYGEVNEIMAISYIYDKDMQLDSYRRFKN | not soluble
MTKHARFSLLPSFIIFSAALLAGCNDQGDTQAHAGEPQVTVHVVETAPLAVTTELPGRTSAFRIAEVRPQVSGIVLKRNFTEGSDVEAGQSLYQIDPATYQADYDSAKGELAKSEAAAAIAHLTVKRYVPLVGTKYISQQEYDQAIADARQADAAVVAAKAAVESARINLAYTKVTSPISGRIGKSNVTEGALVTNGQSTELATVQQLDPIYVDVTQSSNDFMRLKQSVEQGNLHKDSASSTVQLVMENGQVYPIKGTLQFSDVTVDESTGSITLRAVFPNPQHSLLPGMFVRARIDEGVQPNAILVPQQGVTRTPRGDAMVMVVNDKSQVEARNVVAAQAIGDKWLISEGLKPGDKVIVSGLQKARPGVQVKATTDAPAAKTAQ | not soluble
MKISTKGRYGLTIMIELAKKYGDRPISLRSIAKANNLSEHYLEQLVTPLRNAGLVKSIRGAYGGYVLAEHPAKITAGDILRVLEGPLTPVEELEEEEPAKRELWIRIRDAVEEVLDSTTLEDLAKYSDGDEGAYMFYI | not soluble
MKWILLPILFVTLAVSGTALAQPSPTETVKKTVDDVIKIVSDKELKKPQNEKRRRQEIKRAIGTVFDSAEMAQRAMARHWRDRNAAEKKEFVDLFENLLENSYAGKIESYNQEKVVYLKEAIDGDYAEVRSKIVTARRDEYSLDYRLMLKGGKWVVYDIVIEGVSLVSNYRTQFNKIITNQGYAELVKKLRSKNKEISMPLEHHHHHH | soluble
MGSDKIHHHHHHMKTAEPQTIDDLERWIKSRGITEVECLVPDLSGIPRGKILPARKFLSCLRDRGLRLPESVFTQTVTGEYPEDDPVDIADSDVYLRPDPRTIRVVPWYEEPTAQVINDCFHRDRSEVHCAPRQVLRNILALYEKQGWKPVVAPELEFYLVRINADPDYPLEPPIGRSGRAETGRQAYGIDAVNEFDPLFEDIYDYAEEQNLDLDTLHHESGSAQMEINFLHGDPMELADQVFLFKRTVRQAALRHNVYATFMAKPLAGQPGSAMHLHQSITDAESGRNILVKKNGEDSDLFRWHIGGLQKYLPHCMLMLAPNVNSYRRFLPDQSAPINMHWGHDNRTVSLRVPYADASARRVENRLSGADANPYLAIAASLACGYLGMIEKIEPTAPITGSAYTRAHNLPRHLPDAIERFERARPLHELLNADFVRVYASVKWAEWDAYQHVISSWEREYLLLNV | not soluble
MSLSLNFLDFEKPIVELETKIQALRDVSRHSTSASVDLDKELEQLEKKSLELKKKIFSDLGAWQVAQLARHPQRPYTLDYLKHIFTEFDELAGDRAYADDKAIVGGIARLEGRSVMVIGHQKGRETREKVKRNFGMPKPEGYRKALRLMEMAERFNMPIITFIDTAGAYPGVGAEERGQSEAIAKNLKVMSGLKVPVICNVVGEGGSGGALAIGVGDYVNMLQYSTYSVISPEGCASILWRDSDKAPQAAEAMGLIAPRLKELELIDEIIEEPLGGAHRDHKQTAENVKATLLRQLADLDALDHENLLERRYQRLMNYGYCEGHHHHHH | soluble
MSDKRETRIKSVQNLAPVYNVRDDAKTRRRVALTQMLGRAYNQFNAGDDAAAEKLLEEVLRQDRSSIDAWTLRATIYSKRGDVVHSGEYYRKAAQLAPQRGDVLNNYGAWLCANGYPAEALVWFERAMADPAYGEQPGTLANSGGCALQAGQRDRADHDLRRALELDPSNAYALESMARNEYDKHRYFEARAFSERRLATTVPATASVLKLAIQIEQELGDRAAASRYQQRLVKEFPETVAVEPRG | soluble
MGSDKIHHHHHHMTKHIHWDGNLSQEGFEIVKGEGGVIVCPTKVGYIIMTSDKKGLERKFEAKKRNRNKPGVVLCGSMEELRALAQLTPEIDAFYQKHWDEDILLGCILPWKAEAYEKLKAYGDGREELMTDIRGTSCFVIKFGVAGEQIAKEMWEKEGRMVYASSANPSGKGNRGKVEGIGERIESMVDLVIEADDYVASIQPDKTIETRYEQGVMVSMVDKDGKLIPQQGADSRSVEPCPVVIRKGLDIDKIMMHLSDQFNSWNYRQGEYY | not soluble
MGSDKIHHHHHHIRMKINLGVVGAGIASRELHLPALRKLSDLFTVVAVNSRTRKKAEEFAGIVGGDVRVFDSYEEMLSSDSVDAVVLAVPISLNPKMIIAARRANKPVICEKPVAASVKEAVPLLRLPGSSPVYIAENYRHIEVYEKAAELLKEGRIGIPLAFSWLKWVDFGQDNKYVQTKWRQTPEHVGGFISDGGVHDVAALRKTLGDVEEVSGFTKKSLDYLGAENCVVFNMTLENGVIGNYSVVYGAASPLNRFEIVGTDGLMLVDKDGATIEIFAADREKIFVNKTDGFIEEFRDFYNVVEGEKNSLGTVGEALLDLATIEAGLVSAVEKRVVAVDSLLEES | not soluble
MGSDKIHHHHHHMGEAIVITSGKGGVGKTTTSANLGTALAILGKRVCLVDTDIGLRNLDVVMGLENRIIYDLVDVVEGRCKMHQALVKDKRFDDLLYLMPAAQTSDKTAVAPEQIKNMVQELKQEFDYVIIDCPAGIEQGYKNAVSGADKAIVVTTPEISAVRDADRIIGLLEQEENIEPPRLVVNRIRNHLMKNGDTMDIDEIVQHLSIDLLGIVADDDEVIKASNHGEPIAMDPKNRASIAYRNIARRILGESVPLQVLEEQNKGMMAKIKSFFGVRS | not soluble
MAHHHHHHMNAMYSADQIHVPPELGTIMKQYTKAVMRDKPTDLYKYSANFFAILSGYAAPFDSEGQLMENGVQEASSRSTVPISFGSEKEENAGSQDPTDILLRRYDRTGTGYMDPAELPQLLAELRMNLSLDEKDVVSAEDILAALPSACDQIDLLELRNLLLESMGD | soluble
MGSDKIHHHHHHMGNCQILSSGDKIKLIRKKYGLRQDDIVGEEVTRNLISQIEHNKAKLTKSTAEIIIKNLKEIAKKNNLEMDVTADYLLEDELAQANSILENYVDELKNLLVYKCSRFYESLKSAEEFLIQWDIKEKKVQIYELAGDYFYIQNDLAKSVLYYEKAFDILDKTSYNKSLLSILRKLSLMYLNSLKYDRSIECCNFALNHFKNMPDDYISIFLFNTALCYYYMHYYEKALEVIDNLEPLIKDNTSKLIDVLNNKACCLSDLNRIDEAAEIYLRIFNLLNTNNIKSSQYLLILSNLIDTFAKKDVKDEVIKYLNLLLDRFPTSSQDDSYLSVACFNAAKAFIYLGDLQKAEEYLLKALTLSKNHNKYSLQEKTLSLLTDLYIQLNDFEKLEEINLEAVVLSNSQQKVCTNIFYKLLKFLNQNNKTEDIDKILNFLIKFK | not soluble
